The supplement of paper PMC10567573

B1: IQUB (parent)
chain: EADYEDDSKIAFLMQLQDIQYLTE
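Further: lentivirally expressed fusions sorted by FACS into six bins by GFP to DsRed ratio, PSI derived from sequencing read proportions per bin multiplied by bin number.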

Variants of: B1
Assay: protein stability index of a GFP-peptide fusion (GPS, HEK-293T) (PSI 1-6); higher = more stable
Conditions: c terminus: a fixed tail appended
EADYEDDSKIAFLMQLQDDQYLTE [I19D] gave a protein stability index of 4.94. EADYEDDSKIAFLMQLQDEQYLTE [I19E] showed a protein stability index of 4.96. For EADYEDDSKIAFLMQLQDFQYLTE [I19F], the protein stability index was 3.44. EADYEDDSKIAFLMQLQDGQYLTE [I19G] showed a protein stability index of 4.31. With EADYEDDSKIAFLMQLQDHQYLTE [I19H] the protein stability index was 3.98. For EADYEDDSKIAFLMQLQDKQYLTE [I19K], the protein stability index was 4.86. In the case of EADYEDDSKIAFLMQLQDLQYLTE [I19L], the protein stability index is reported as 2.86. In the case of EADYEDDSKIAFLMQLQDMQYLTE [I19M], the protein stability index is reported as 3.68. In the case of EADYEDDSKIAFLMQLQDNQYLTE [I19N], the protein stability index is reported as 3.98. Variant EADYEDDSKIAFLMQLQDPQYLTE [I19P] has a protein stability index of 4.18. With EADYEDDSKIAFLMQLQDQQYLTE [I19Q] the protein stability index was 4.11. EADYEDDSKIAFLMQLQDRQYLTE [I19R] showed a protein stability index of 3.78. In the case of EADYEDDSKIAFLMQLQDSQYLTE [I19S], the protein stability index is reported as 4.35. For EADYEDDSKIAFLMQLQDTQYLTE [I19T], the protein stability index was 4.15. With EADYEDDSKIAFLMQLQDVQYLTE [I19V] the protein stability index was 3.86. For EADYEDDSKIAFLMQLQDWQYLTE [I19W], the protein stability index was 2.64. With EADYEDDSKIAFLMQLQDYQYLTE [I19Y] the protein stability index was 3.54. In the case of EADYEDDSKIAFLMQLQDIAYLTE [Q20A], the protein stability index is reported as 2.5. EADYEDDSKIAFLMQLQDICYLTE [Q20C] gave a protein stability index of 2.2. Work on EADYEDDSKIAFLMQLQDIDYLTE [Q20D] yielded a protein stability index of 3.86. EADYEDDSKIAFLMQLQDIEYLTE [Q20E] gave a protein stability index of 3.98. EADYEDDSKIAFLMQLQDIFYLTE [Q20F] gave a protein stability index of 1.54. In the case of EADYEDDSKIAFLMQLQDIGYLTE [Q20G], the protein stability index is reported as 2.97. Work on EADYEDDSKIAFLMQLQDIHYLTE [Q20H] yielded a protein stability index of 3.12. With EADYEDDSKIAFLMQLQDIIYLTE [Q20I] the protein stability index was 2.64. Work on EADYEDDSKIAFLMQLQDIKYLTE [Q20K] yielded a protein stability index of 3.46. EADYEDDSKIAFLMQLQDILYLTE [Q20L] showed a protein stability index of 1.69. EADYEDDSKIAFLMQLQDIMYLTE [Q20M] gave a protein stability index of 2.48. EADYEDDSKIAFLMQLQDINYLTE [Q20N] gave a protein stability index of 3.22. Variant EADYEDDSKIAFLMQLQDIPYLTE [Q20P] has a protein stability index of 3.45. EADYEDDSKIAFLMQLQDIRYLTE [Q20R] gave a protein stability index of 3.67. In the case of EADYEDDSKIAFLMQLQDISYLTE [Q20S], the protein stability index is reported as 3.61. In the case of EADYEDDSKIAFLMQLQDITYLTE [Q20T], the protein stability index is reported as 3.05. In the case of EADYEDDSKIAFLMQLQDIVYLTE [Q20V], the protein stability index is reported as 2.19. EADYEDDSKIAFLMQLQDIWYLTE [Q20W] gave a protein stability index of 2.35. EADYEDDSKIAFLMQLQDIYYLTE [Q20Y] showed a protein stability index of 1.62. EADYEDDSKIAFLMQLQDIQALTE [Y21A] gave a protein stability index of 3.81. EADYEDDSKIAFLMQLQDIQCLTE [Y21C] showed a protein stability index of 3.74. Work on EADYEDDSKIAFLMQLQDIQDLTE [Y21D] yielded a protein stability index of 4.45. Work on EADYEDDSKIAFLMQLQDIQELTE [Y21E] yielded a protein stability index of 4.21. EADYEDDSKIAFLMQLQDIQFLTE [Y21F] showed a protein stability index of 2.78. Variant EADYEDDSKIAFLMQLQDIQGLTE [Y21G] has a protein stability index of 4.07. In the case of EADYEDDSKIAFLMQLQDIQHLTE [Y21H], the protein stability index is reported as 3.55. In the case of EADYEDDSKIAFLMQLQDIQILTE [Y21I], the protein stability index is reported as 3.19. Variant EADYEDDSKIAFLMQLQDIQKLTE [Y21K] has a protein stability index of 3.51. EADYEDDSKIAFLMQLQDIQLLTE [Y21L] showed a protein stability index of 3.44. EADYEDDSKIAFLMQLQDIQMLTE [Y21M] gave a protein stability index of 3.45. In the case of EADYEDDSKIAFLMQLQDIQNLTE [Y21N], the protein stability index is reported as 3.87. For EADYEDDSKIAFLMQLQDIQPLTE [Y21P], the protein stability index was 3.77. In the case of EADYEDDSKIAFLMQLQDIQQLTE [Y21Q], the protein stability index is reported as 3.64. EADYEDDSKIAFLMQLQDIQRLTE [Y21R] gave a protein stability index of 2.99. In the case of EADYEDDSKIAFLMQLQDIQSLTE [Y21S], the protein stability index is reported as 3.52. Variant EADYEDDSKIAFLMQLQDIQTLTE [Y21T] has a protein stability index of 4.06. EADYEDDSKIAFLMQLQDIQVLTE [Y21V] gave a protein stability index of 3.51. With EADYEDDSKIAFLMQLQDIQWLTE [Y21W] the protein stability index was 2.95. EADYEDDSKIAFLMQLQDIQYATE [L22A] gave a protein stability index of 4.16. In the case of EADYEDDSKIAFLMQLQDIQYCTE [L22C], the protein stability index is reported as 3.67. Work on EADYEDDSKIAFLMQLQDIQYDTE [L22D] yielded a protein stability index of 4.97. In the case of EADYEDDSKIAFLMQLQDIQYETE [L22E], the protein stability index is reported as 4.7. For EADYEDDSKIAFLMQLQDIQYFTE [L22F], the protein stability index was 2.91. Work on EADYEDDSKIAFLMQLQDIQYGTE [L22G] yielded a protein stability index of 4.5. EADYEDDSKIAFLMQLQDIQYHTE [L22H] gave a protein stability index of 4.07. With EADYEDDSKIAFLMQLQDIQYITE [L22I] the protein stability index was 3.62. For EADYEDDSKIAFLMQLQDIQYKTE [L22K], the protein stability index was 3.79. For EADYEDDSKIAFLMQLQDIQYMTE [L22M], the protein stability index was 3.4. In the case of EADYEDDSKIAFLMQLQDIQYNTE [L22N], the protein stability index is reported as 4.65. With EADYEDDSKIAFLMQLQDIQYPTE [L22P] the protein stability index was 4.51. Work on EADYEDDSKIAFLMQLQDIQYQTE [L22Q] yielded a protein stability index of 3.83. In the case of EADYEDDSKIAFLMQLQDIQYRTE [L22R], the protein stability index is reported as 3.94. With EADYEDDSKIAFLMQLQDIQYSTE [L22S] the protein stability index was 3.99. In the case of EADYEDDSKIAFLMQLQDIQYTTE [L22T], the protein stability index is reported as 3.96. For EADYEDDSKIAFLMQLQDIQYVTE [L22V], the protein stability index was 3.42. Variant EADYEDDSKIAFLMQLQDIQYWTE [L22W] has a protein stability index of 3.07. In the case of EADYEDDSKIAFLMQLQDIQYYTE [L22Y], the protein stability index is reported as 3.21. For EADYEDDSKIAFLMQLQDIQYLAE [T23A], the protein stability index was 2.26. EADYEDDSKIAFLMQLQDIQYLCE [T23C] showed a protein stability index of 1.87. With EADYEDDSKIAFLMQLQDIQYLDE [T23D] the protein stability index was 4.09. In the case of EADYEDDSKIAFLMQLQDIQYLEE [T23E], the protein stability index is reported as 4.16. Variant EADYEDDSKIAFLMQLQDIQYLFE [T23F] has a protein stability index of 1.98. For EADYEDDSKIAFLMQLQDIQYLGE [T23G], the protein stability index was 3.19. For EADYEDDSKIAFLMQLQDIQYLHE [T23H], the protein stability index was 3.29. Work on EADYEDDSKIAFLMQLQDIQYLIE [T23I] yielded a protein stability index of 1.54. For EADYEDDSKIAFLMQLQDIQYLKE [T23K], the protein stability index was 3.2. EADYEDDSKIAFLMQLQDIQYLLE [T23L] gave a protein stability index of 2.12. For EADYEDDSKIAFLMQLQDIQYLME [T23M], the protein stability index was 1.92. EADYEDDSKIAFLMQLQDIQYLNE [T23N] showed a protein stability index of 3.89. In the case of EADYEDDSKIAFLMQLQDIQYLPE [T23P], the protein stability index is reported as 4.17. EADYEDDSKIAFLMQLQDIQYLQE [T23Q] showed a protein stability index of 3.89. EADYEDDSKIAFLMQLQDIQYLRE [T23R] showed a protein stability index of 3.29. With EADYEDDSKIAFLMQLQDIQYLSE [T23S] the protein stability index was 3.21. EADYEDDSKIAFLMQLQDIQYLVE [T23V] gave a protein stability index of 1.92. Variant EADYEDDSKIAFLMQLQDIQYLWE [T23W] has a protein stability index of 1.97. For EADYEDDSKIAFLMQLQDIQYLYE [T23Y], the protein stability index was 2.21. Work on EADYEDDSKIAFLMQLQDIQYLTA [E24A] yielded a protein stability index of 2.91.
